{"source": "patent US20120322150", "proteins": {"B1": {"name": "GST-BIN2 (protein)", "chain": "MADDKEMPAAVVDGHDQVTGHIISTTIGGKNGEPKQTISYMAERVVGTGSFGIVFQAKCLETGETVAIKKVLQDRRYKNRELQLMRVMDHPNVVCLKHCFFSTTSKDELFLNLVMEYVPESLYRVLKHYSSANQRMPLVYVKLYMYQIFRGLAYIHNVAGVCHRDLKPQNLLVDPLTHQVKICDFGSAKQLVKGEANISYICSRFYRAPELIFGATEYTTSIDIWSAGCVLAELLLGQPLFPGENAVDQLVEIIKVLGTPTREEIRCMNPHYTDFRFPQIKAHPWHKIFHKRMPPEAIDFASRLLQYSPSLRCTALEACAHPFFDELREPNARLPNGRPFPPLFNFKQEVAGSSPELVNKLIPDHIKRQLGLSFLNQSGT"}, "B2": {"name": "GST-AtSK12 (protein)", "chain": "MASVGIEPSAAVRESTGNVTDADRLPEEMKDMKIQDDKEMEATIVNGNVTETGHIIVTTIGGRNGQPKQTISYMAERVVGHGSFGVVFQAKCLETGETVAIKKVLQDRRYKNRELQTMRLLDHPNVVSLKHCFFSTTEKDELYLNLVLEYVPETVHRVIKHYNKLNQRMPLVYVKLYTYQIFRSLSYIHRCIGVCHRDIKPQNLLVNPHTHQVKLCDFGSAKVLVKGEPNISYICSRYYRAPELIFGATEYTTAIDVWSAGCVLAELLLGQPLFPGESGVDQLVEIIKVLGTPTREEIKCMNPNYTEFKFPQIKAHPWHKIFHKRMPPEAVDLVSRLLQYSPNLRCAALDSLVHPFFDELRDPNARLPNGRFLPPLFNFKPHELKGVPVEMVAKLVPEHARKQCPWLSL"}, "B3": {"name": "GST-BSU1-P (C-terminal phosphatase domain) (protein)", "chain": "DNYMLLDDYLMDEPKPLSSEPEASSFIMRSTSEIAMDRLAEAHNLPTIENAFYDSAIEGYVPLQHGAETVGNRGGLVRTASLDQSTQDLHKKVISTLLRPKTWTPPANRDFFLSYLEVKHLCDEVEKIFMNEPTLLQLKVPIKVFGDIHGQYGDLMRLFHEYGHPSVEGDITHIDYLFLGDYVDRGQHSLEIIMLLFALKIEYPKNIHLIRGNHESLAMNRIYGFLTECEERMGESYGFEAWLKINQVFDYLPLAALLEKKVLCVHGGIGRAVTIEEIENIERPAFPDTGSMVLKDILWSDPTMNDTVLGIVDNARGEGVVSFGPDIVKAFLERNGLEMILRAHECVIDGFERFADGRLITVFSATNYCGTAQNAGAILVIGRDMVIYPKLIHPHPPPISSSEEDYTDKAWMQELNIEMPPTPARGESSE"}}, "key": {"[1]": {"molecular_target": "T1, GST-BSU1-KL (N-terminal Kelch domain)", "T1 chain": "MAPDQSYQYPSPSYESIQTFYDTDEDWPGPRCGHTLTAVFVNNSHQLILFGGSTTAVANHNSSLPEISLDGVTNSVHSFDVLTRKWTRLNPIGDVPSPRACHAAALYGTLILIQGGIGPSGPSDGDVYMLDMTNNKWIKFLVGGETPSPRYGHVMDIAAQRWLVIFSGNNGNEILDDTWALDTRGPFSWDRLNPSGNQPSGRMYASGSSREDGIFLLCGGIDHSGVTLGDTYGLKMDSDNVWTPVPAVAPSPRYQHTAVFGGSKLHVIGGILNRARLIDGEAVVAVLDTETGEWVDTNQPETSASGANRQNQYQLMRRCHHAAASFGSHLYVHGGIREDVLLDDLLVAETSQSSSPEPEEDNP"}, "[2]": {"molecular_target": "T2, MBP-BZR1, Q8S307", "T2 chain": "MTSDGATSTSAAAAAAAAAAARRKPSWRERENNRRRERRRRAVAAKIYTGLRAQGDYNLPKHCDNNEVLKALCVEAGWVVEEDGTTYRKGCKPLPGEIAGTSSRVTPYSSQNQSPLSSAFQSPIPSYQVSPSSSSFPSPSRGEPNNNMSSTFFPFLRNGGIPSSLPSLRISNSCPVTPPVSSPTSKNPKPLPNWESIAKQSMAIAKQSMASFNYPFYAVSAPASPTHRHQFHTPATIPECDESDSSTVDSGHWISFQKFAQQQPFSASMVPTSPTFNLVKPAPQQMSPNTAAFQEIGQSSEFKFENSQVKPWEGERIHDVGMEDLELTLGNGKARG"}, "[3]": {"molecular_target": "T3, GST-BIN2, Q39011", "T3 chain": "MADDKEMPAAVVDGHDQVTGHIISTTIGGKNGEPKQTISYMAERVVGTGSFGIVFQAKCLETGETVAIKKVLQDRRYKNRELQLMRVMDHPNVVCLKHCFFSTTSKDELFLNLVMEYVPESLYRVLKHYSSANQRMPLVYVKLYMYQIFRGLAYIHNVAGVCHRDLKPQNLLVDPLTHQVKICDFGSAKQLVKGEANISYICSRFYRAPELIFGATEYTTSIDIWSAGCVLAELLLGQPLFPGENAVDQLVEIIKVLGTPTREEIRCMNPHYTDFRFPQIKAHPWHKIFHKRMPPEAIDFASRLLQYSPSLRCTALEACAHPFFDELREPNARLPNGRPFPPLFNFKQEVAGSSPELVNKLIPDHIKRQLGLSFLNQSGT"}}}
{"protein": "B1", "values": [{"measurement": "BIN2 phosphorylation of MBP-BZR1 (in vitro kinase assay with 32P-γATP)", "setting": "[1]", "value": "the Kelch repeat domain showed no effect"}]}
{"protein": "B2", "values": [{"measurement": "phosphorylation of MBP-BZR1 (in vitro kinase assay with 32P-γATP)", "setting": "[2]", "value": "AtSK12 strongly phosphorylates BZR1 in vitro"}]}
{"protein": "B3", "values": [{"measurement": "BIN2 phosphorylation of MBP-BZR1 (in vitro kinase assay with 32P-γATP)", "setting": "[3]", "value": "The phosphatase domain of BSU1 reduced BIN2 phosphorylation of BZR1"}]}
